By EC50 is commonly meant the concentration giving half of the maximal effect.

Test [1] deals with SNAP-tagged wild-type human PTH1R (human) (UniProt Q03431). Description: AlphaScreen or HTRF; binding of 40 nM M-PTH(1–14) to membrane fractions supplemented with increasing concentrations of mini-Gs; data relative to PTH1R without mini-Gs; EC50 of mini-Gs read through ligand occupancy, apparent.
Test [2] has the same target. Description: AlphaScreen or HTRF; crude membrane fractions (0.2–1 µg per well) of HEK293T cells with SNAP-Lumi4-Tb-labelled PTH1R, without mini-Gs; labeled M-PTH(1–14) tracer with unlabeled M-PTH(1–14); 4 h on ice.

As to Mini-Gs 393, in test [1], the EC50 stood at 1390 nM.

On to “Human [Ac5c^1, Aib^3, Q^10, Har^11, A^12, W^14]PTH(1–14) (peptide)”, for which, in test [2], the fold increase in affinity, membrane fractions against whole cells worked out at 5 fold.

Regarding “M-PTH(1–14) labeled at K^13 with HiLyte dye 647 (peptide)”, the fold increase of fractional binding with increasing mini-Gs in test [1] is under 2 fold.

(Values after publication PMC10063554.)
